Read-outs that look alike come from different tables or passages of the source. Values belong to the binder of their own block, whether it stands above or below them. Where no end group is shown, it is not given here.
What was measured:
Peptide-14 = target: T1, Peptide-14 (cysteine pairing not given here; also: biotinylated (site not given here)); assay: ELISA, Fab on captured biotin-peptide
T1 peptide: LDFCKIYDWPICHL

Peptide-8 [1] = target: T2, Peptide-8 (cysteine pairing not given here; also: biotinylated, site not given here); assay: ELISA, Fab on captured biotin-peptide
T2 peptide: VDFCGLYHWPICYQ

Peptide-17 = target: T3, Peptide-17 (cysteine pairing not given here; also: biotinylated (site not given here)); assay: ELISA, Fab on captured biotin-peptide
T3 peptide: IDFCLLYDWPICGR

Peptide-4 = target: T4, Peptide-4 (cysteine pairing not given here; also: biotinylated, site not given here); assay: ELISA, Fab on captured biotin-peptide
T4 peptide: VDFCKIYAWPICGS

Peptide-25 [2] = target: T5, Peptide-25 (cysteine pairing not given here; also: biotinylated (site not given here)); assay: ELISA, Fab on captured biotin-peptide
T5 peptide: VDFCKIYSWPVCHQ

Peptide-2 = target: T6, Peptide-2 (cysteine pairing not given here; also: biotinylated (site not given here)); assay: ELISA, Fab on captured biotin-peptide
T6 peptide: IDFCAVYKWPVCQV

Peptide-12 = target: T7, Peptide-12 (cysteine pairing not given here; also: biotinylated (site not given here)); assay: ELISA, Fab on captured biotin-peptide
T7 peptide: PDFCAVYRWPICYQ

Peptide-10 = target: T8, Peptide-10 (cysteine pairing not given here; also: biotinylated (site not given here)); assay: ELISA, Fab on captured biotin-peptide
T8 peptide: IDFCAIYQWPVCRS

Peptide-7 = target: T9, Peptide-7 (cysteine pairing not given here; also: biotinylated, site not given here); assay: ELISA, Fab on captured biotin-peptide
T9 peptide: EDFCKLYNWPICYQ

Peptide-3 [3] = target: T10, Peptide-3 (cysteine pairing not given here; also: biotinylated, site not given here); assay: ELISA, Fab on captured biotin-peptide
T10 peptide: IDFCMLYNWPICAG

Peptide-18 = target: T11, Peptide-18 (cysteine pairing not given here; also: biotinylated (site not given here)); assay: ELISA, Fab on captured biotin-peptide
T11 peptide: MDFCQIYDWPICRL

Peptide-5 = target: T12, Peptide-5 (cysteine pairing not given here; also: biotinylated, site not given here); assay: ELISA, Fab on captured biotin-peptide
T12 peptide: VDFCKLYNWPVCQT

Peptide-20 = target: T13, Peptide-20 (cysteine pairing not given here; also: biotinylated (site not given here)); assay: ELISA, Fab on captured biotin-peptide
T13 peptide: VDFCSFYRWPICET

Peptide-1 = target: T14, Peptide-1 (cysteine pairing not given here; also: biotinylated (site not given here)); assay: ELISA, Fab on captured biotin-peptide
T14 peptide: IDFCAMYQWPICDT

Peptide-13 = target: T15, Peptide-13 (cysteine pairing not given here; also: biotinylated (site not given here)); assay: ELISA, Fab on captured biotin-peptide
T15 peptide: VDFCELYRWPICNS

Peptide-6 = target: T16, Peptide-6 (cysteine pairing not given here; also: biotinylated, site not given here); assay: ELISA, Fab on captured biotin-peptide
T16 peptide: IDFCLIYNWPVCDT

[4] = target: T17, Human TROP2 ECD (31-274 AA), biotinylated (human, UniProt P09758 31-274, biotinylated (site not stated)); assay: ELISA, Fab on captured biotin-TROP2
T17 construct: captured on neutravidin plates; also called TROP2-biotin; Trop2-biotin
T17 sequence: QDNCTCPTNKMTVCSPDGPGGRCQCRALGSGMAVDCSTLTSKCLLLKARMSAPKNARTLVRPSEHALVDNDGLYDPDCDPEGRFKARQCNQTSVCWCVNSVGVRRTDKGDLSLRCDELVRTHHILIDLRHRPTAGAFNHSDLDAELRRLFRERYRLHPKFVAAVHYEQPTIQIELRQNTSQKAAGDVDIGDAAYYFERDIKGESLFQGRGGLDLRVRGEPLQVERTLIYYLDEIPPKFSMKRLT

[5] = target: T17, Human TROP2 ECD (31-274 AA), …; assay: ELISA, Fab on captured biotin-TROP2; remark: listed apart in the source
Peptide-63 = target: T18, Peptide-63 (cysteine pairing not given here; also: biotinylated, site not given here); assay: ELISA, Fab on captured biotin-peptide
T18 peptide: IDFCLIYNWPVCDT

Peptide-8 [6] = target: T2, Peptide-8; assay: ELISA, Fab on captured biotin-peptide
Peptide-36 = target: T19, Peptide-36 (cysteine pairing not given here; also: biotinylated, site not given here); assay: ELISA, Fab on captured biotin-peptide
T19 peptide: VDFCYQYGWPICSR

Peptide-42 = target: T20, Peptide-42 (cysteine pairing not given here; also: biotinylated, site not given here); assay: ELISA, Fab on captured biotin-peptide
T20 peptide: IDFCAMYHWPICDT

Peptide-38 = target: T21, Peptide-38 (cysteine pairing not given here; also: biotinylated, site not given here); assay: ELISA, Fab on captured biotin-peptide
T21 peptide: VDFCSIYHWPVCYV

Peptide-41 = target: T22, Peptide-41 (cysteine pairing not given here; also: biotinylated, site not given here); assay: ELISA, Fab on captured biotin-peptide
T22 peptide: VDFCGLYHWPICYQVY

Peptide-62 = target: T23, Peptide-62 (cysteine pairing not given here; also: biotinylated, site not given here); assay: ELISA, Fab on captured biotin-peptide
T23 peptide: IDFCAVYKWPVCQV

Peptide-25 [7] = target: T5, Peptide-25; assay: ELISA, Fab on captured biotin-peptide
Peptide-32 = target: T24, Peptide-32 (cysteine pairing not given here; also: biotinylated, site not given here); assay: ELISA, Fab on captured biotin-peptide
T24 peptide: PDFCYMYGWPICDS

Peptide-37 = target: T25, Peptide-37 (cysteine pairing not given here; also: biotinylated, site not given here); assay: ELISA, Fab on captured biotin-peptide
T25 peptide: VDFCYLYNWPVCSK

Peptide-40 = target: T26, Peptide-40 (cysteine pairing not given here; also: biotinylated, site not given here); assay: ELISA, Fab on captured biotin-peptide
T26 peptide: VDFCYLYSWPICTK

Peptide-64 = target: T27, Peptide-64 (cysteine pairing not given here; also: biotinylated, site not given here); assay: ELISA, Fab on captured biotin-peptide
T27 peptide: PDFCAVYRWPICYQ

Peptide-39 = target: T28, Peptide-39 (cysteine pairing not given here; also: biotinylated, site not given here); assay: ELISA, Fab on captured biotin-peptide
T28 peptide: VDFCGLYHWPICYQVD

Peptide-3 [8] = target: T10, Peptide-3; assay: ELISA, Fab on captured biotin-peptide
Peptide-43 = target: T29, Peptide-43 (cysteine pairing not given here; also: biotinylated, site not given here); assay: ELISA, Fab on captured biotin-peptide
T29 peptide: VDFCALYHWPICYQ

Peptide-35 = target: T30, Peptide-35 (cysteine pairing not given here; also: biotinylated, site not given here); assay: ELISA, Fab on captured biotin-peptide
T30 peptide: EDFCYWYQWPICSD

Peptide-33 = target: T31, Peptide-33 (cysteine pairing not given here; also: biotinylated, site not given here); assay: ELISA, Fab on captured biotin-peptide
T31 peptide: PDFCYMYNWPVCVT

[9] = target: T32, TCE-11 (anti-CD3 scFv H101A; anti-TROP2 wt); assay: competition ELISA, TCE on captured CD3
T32 construct: scFv on the Fab heavy chain; also called TCE-11 (H101A)

[10] = target: T33, TCE-20 (anti-CD3 scFv S110A; anti-TROP2 wt); assay: competition ELISA, TCE on captured CD3
T33 construct: scFv on the Fab heavy chain; also called TCE-20 (S110A)

[11] = target: T34, TCE-10 (anti-CD3 scFv R100A; anti-TROP2 wt); assay: competition ELISA, TCE on captured CD3
T34 construct: scFv on the Fab heavy chain; also called TCE-10 (R100A)

[12] = target: T35, TCE-13 (anti-CD3 scFv N103A; anti-TROP2 wt); assay: competition ELISA, TCE on captured CD3
T35 construct: scFv on the Fab heavy chain; also called TCE-13 (N103A)

[13] = target: T36, TCE-22 (anti-CD3 scFv W112A; anti-TROP2 wt); assay: competition ELISA, TCE on captured CD3
T36 construct: scFv on the Fab heavy chain; also called TCE-22 (W112A)

[14] = target: T37, TCE-31 (anti-CD3 scFv W238A; anti-TROP2 wt); assay: competition ELISA, TCE on captured CD3
T37 construct: scFv on the Fab heavy chain; also called TCE-31 (W238A)

[15] = target: T38, TCE-26 (anti-CD3 scFv W233A; anti-TROP2 HC wt); assay: competition ELISA, TCE on captured CD3
T38 construct: scFv on the Fab heavy chain; also called TCE-26 (W233A)

[16] = target: T39, TCE-33 (anti-CD3 scFv F240A; anti-TROP2 wt); assay: competition ELISA, TCE on captured CD3
T39 construct: scFv on the Fab heavy chain; also called TCE-33 (F240A)

[17] = target: T40, TCE-1 (anti-CD3 scFv wt; anti-TROP2 Fab wt); assay: competition ELISA: peptide titrated and pre-incubated with a constant concentration of TCE-1, binding of TCE-1 to plate-bound biotinylated CD3 detected
T40 construct: anti-CD3 scFv fused to the N-terminus of the anti-TROP2 Fab heavy chain; also called TCE-1 (wt)

[18] = target: T41, TCE-14 (anti-CD3 scFv F104A; anti-TROP2 wt); assay: competition ELISA, TCE on captured CD3
T41 construct: scFv on the Fab heavy chain; also called TCE-14 (F104A)

Binder: VDCGPDGDESILCY (cysteine pairing not given here; also: biotinylated, site not given here, mask peptide for the CD3 scFv) [Peptide-71]
IC50 [9]: 3720 nM
IC50 [10]: 11800 nM
IC50 [11]: 1350 nM
IC50 [12]: 5080 nM
IC50 [13]: 13800 nM
IC50 [14]: 51000 nM
IC50 [15]: 75400 nM
IC50 [16]: 4830 nM
binding result [17]: binds

Binder: QGCGTIADPEPHCW (cysteine pairing not given here; also: biotinylated, site not given here, mask peptide for the CD3 scFv) [Peptide-65]
IC50 [18]: 6460 nM
IC50 [9]: 85000 nM
IC50 [10]: 6540 nM
IC50 [14]: 17700 nM
IC50 [15]: 2640 nM
IC50 [16]: 620 nM
IC50 (read off the curve) [17]: ~2000 nM

The next lines start with the values.

EC50 (Peptide-14): 5.3 nM
EC50 (Peptide-8 [1]): 0.6 nM
EC50 (Peptide-17): 2.6 nM
EC50 (Peptide-4): 1.2 nM
EC50 (Peptide-25 [2]): 1.9 nM
EC50 (Peptide-2): 1.1 nM
EC50 (Peptide-12): 0.6 nM
EC50 (Peptide-10): 1 nM
EC50 (Peptide-7): 3.6 nM
EC50 (Peptide-3 [3]): 1.6 nM
EC50 (Peptide-18): 7.8 nM
EC50 (Peptide-5): 0.9 nM
EC50 (Peptide-20): 5.3 nM
EC50 (Peptide-1): 1 nM
EC50 (Peptide-13): 3.9 nM
EC50 (Peptide-6): 1.4 nM
EC50 [4]: 1.1 nM
EC50 [5]: 1.1 nM
EC50 (Peptide-63): 1.7 nM
EC50 (Peptide-8 [6]): 0.6 nM
EC50 (Peptide-36): 2.2 nM
EC50 (Peptide-42): 0.8 nM
EC50 (Peptide-38): 2 nM
EC50 (Peptide-41): 6 nM
EC50 (Peptide-62): 0.9 nM
EC50 (Peptide-25 [7]): 2.8 nM
EC50 (Peptide-32): 2.1 nM
EC50 (Peptide-37): 1.7 nM
EC50 (Peptide-40): 4.6 nM
EC50 (Peptide-64): 1.7 nM
EC50 (Peptide-39): 4.6 nM
EC50 (Peptide-3 [8]): 3 nM
EC50 (Peptide-43): 0.9 nM
EC50 (Peptide-35): 7.7 nM
EC50 (Peptide-33): 1.5 nM
B1: TBD-22 (HC D109A) (Fab, V domains shown)
VH: QVQLQQSGSELKKPGASVKVSCKASGYTFTNYGMNWVKQAPGQGLKWMGWINTYTGEPTYTDDFKGRFAFSLDTSVSTAYLQISSLKADDTAVYFCARGGFGSSYWYFAVWGQGSLVTVSS
VL: DIQLTQSPSSLSASVGDRVSITCKASQDVSIAVAWYQQKPGKAPKLLIYSASYRYTGVPDRFSGSGSGTDFTLTISSLQPEDFAVYYCQQHYITPLTFGAGTKVEIKR
notes: Fab; also called HC D109A mutant

IC50 [18]: 11800 nM
IC50 [10]: 4240 nM
IC50 [12]: 50400 nM
IC50 [13]: 56800 nM
IC50 [14]: 6570 nM
IC50 [15]: 2020 nM
IC50 [16]: 810 nM
binding result [17]: binds
Binder: SECLVDLQSDPCYW (cysteine pairing not given here; also: biotinylated, site not given here, mask peptide for the CD3 scFv) [Peptide-69]

IC50 [18]: 1080 nM
IC50 [10]: 400 nM
IC50 [11]: 88900 nM
IC50 [14]: 9470 nM
IC50 [15]: 43000 nM
IC50 [16]: 7350 nM
binding result [17]: binds
Binder: DWCWYSPDNDGLCD (cysteine pairing not given here; also: biotinylated, site not given here, mask peptide for the CD3 scFv) [Peptide-68]

Source: patent US20230357429A1 (JANUX THERAPEUTICS, published 2023)
